{"source": "patent US20260167679A1", "about": "“FUSION PROTEIN TARGETING MITOCHONDRIA, METHOD OF MAKING AND USE THEREOF” (UNIVERSITY OF ROCHESTER, priority 2020, published 2026)", "molecules": {"B1": {"name": "mtON: fusion of the 187 N-terminal amino acids of mouse IMMT1 to the light-activated proton pump (Mac) from Leptosphaeria maculans (protein)", "chain": "MLRACQLSGVTVAAQSCLCGKFVLRPLRPCRRYSTSSSSGLTAGKIAGAGLLFVGGGIGGTILYAKWDSHFRESVEKTIPYSDKLFGMVLGSAPYTVPLPKKPVQSGPLKISSVSEVMKDSKLPVAQSQKTKGDTPASAASTGAAQIISAAGDTLSVPAPAVQHEDTIKTECPNTNEGKSTSETTEEPAGLIVDQFEEVLMKTSQLFPLPTATQSAQPTHVAPVPTVLPDTPIYETVGDSGSKTLWVVFVLMLIASAAFTALSWKIPVNRRLYHVITTIITLTAALSYFAMATGHGVALNKIVIRTQHDHVPDTYETVYRQVYYARYIDWAITTPLLLLDLGLLAGMSGAHIFMAIVADLIMVLTGLFAAFGSEGTPQKWGWYTIACIAYIFVVWHLVLNGGANARVKGEKLRSFFVAIGAYTLILWTAYPIVWGLADGARKIGVDGEIIAYAVLDVLAKGVFGAWLLVTHANLRESDVELNGFWANGLNREGAIRIGEDDGAR", "modifications": "Synthetic Complete mtON fusion protein sequence"}}, "key": {"AMPK": {"tested_on": "AMPK", "test": "Immunoblot of phosphorylated AMPK", "assay_type": "in vivo, Caenorhabditis elegans", "settings": "animals removed from food, mtON activation", "method": "Synchronized young adult animals were exposed to 1 Hz light (Quantum LED, 0.02 mW/mm2) for 4 h, and immediately harvested with ice-cold M9 media and centrifuged at 1,000×g for 1 min. Animals were ground by plastic pestle disruption in lysis buffer (20 mM Tris-HCl, 100 mM NaCl, 1 mM EDTA, 1 mM DTT, 10% glycerol, 0.1% SDS, pH 7.6, 1×Halt™ protease inhibitor cocktail, Thermo78429) and diluted 1:1 in sample loading buffer (100 mM Tris-HCl, 10% v/v glycerol, 10% SDS, 0.2% w/v bromophenol blue, 2% v/v b-mercaptoethanol). These samples were heated at 95° C. for 5 min. Isolated mitochondrial samples were prepared as described above and diluted 1:1 in sample loading buffer with 1% SDS. […] samples were loaded to 7.5% polyacrylamide gels and separated by SDS-PAGE. Proteins were transferred to nitrocellulose membranes and blocked in 5% non-fat milk/TBST (50 mM Tris, 150 mM NaCl, 0.05% Tween 20, pH 8.0) for 1 h at room temperature. Membranes were incubated at 4° C. in primary antibodies diluted 1:1,000 in 5% bovine serum albumin:anti-GFP (ClonTech Living Colours #ab632375), anti-ATP5a (Abcam, #ab14748), 1:60 anti-HSP60 (Department of Biology, Iowa City, IA 52242; Developmental Studies Hybridoma Bank, University of Iowa Department of Biology, Iowa City, IA 52242), […], anti-Actin (Abcam #ab14128), and 1:10,000 antiphospho-AMPKa Rabbit (Cell Signaling, #2535). […]"}, "C. elegans [1]": {"tested_on": "C. elegans", "test": "Hypoxia and reoxygenation with hypoxic preconditioning", "assay_type": "in vivo, Caenorhabditis elegans", "settings": "mtON activation during the short hypoxia (PC)", "method": "(§1) Experiments were carried out using a hypoxic chamber (Coy Laboratory Products, 5%/95% H2/N2 gas, palladium catalyst) at 26° C. with 50-100 animals per plate. O2 was <0.01%. Hypoxic preconditioning (PC) duration was 4 h, and control animals were incubated at 26° C. in room air for the same time. 1 Hz illumination (Quantum LED, 0.02 mW/mm^2) was carried out during PC period or during the hypoxic period. Hypoxic exposure was for 18.5, 21 h after PC. Twenty-four hours after hypoxia exposure, animals that were moving or those that moved in response to a light touch to the head were scored as alive. Data from days where PC was at least 15% effective for both +ATR and −ATR were used. Animals supplemented with ATR were allowed to lay eggs onto plates with no ATR that were subsequently used for HR experiments to minimize confounding effects of ATR. ATR from the parent animal was sufficient to provide active mtON in progeny as tested by the azide toxin assay described above. […] FCCP dissolved in ethanol was deposited onto seeded NGM plates."}, "[2]": {"tested_on": "isolated C. elegans mitochondria", "test": "Mitochondrial membrane potential measurement (TMRE) in isolated mitochondria", "assay_type": "biochemical, Caenorhabditis elegans", "settings": "mtON activation (+ATR, +light), rotenone, no added substrate, non-phosphorylating", "method": "Isolated mitochondria at 0.5 mg/ml were stirred in mitochondrial respiration buffer (MRB: 120 mM KCl, 25 mM sucrose, 5 mM MgCl2, 5 mM KH2PO4, 1 mM EGTA, 10 mM HEPES, 1 mg/ml FF-BSA, pH 7.35) at 25° C. in the presence of 2 μM rotenone and 5 mM succinate where indicated. 300 nM tetramethylrhodamine ethyl ester (TMRE, Thermo Fisher, T669) was added to observe mitochondrial membrane potential in quench mode. Under quenching conditions, TMRE fluorescence is low in the presence of a AWm. Upon addition of a protonophore (e.g., FCCP), TMRE will exit mitochondria and dequench and increase total fluorescence. TMRE signal was measured by Cary Eclipse Fluorescence Spectrophotometer (Agilent Technologies) using a 335-620 nm excitation filter and a 550-1,100 nm emission. […] Increasing illumination time exposed mitochondria to more photons (calculated as fluence, J/cm^2). […] The average fluorescence intensity after addition of 2 μM FCCP (maximum fluorescence in quench mode) was subtracted from the starting test condition to give a change in fluorescence corresponding to changes in ΔΨm (ΔF for conditions without succinate, and ΔFmax for conditions with succinate). To represent polarization of the ΔWm, the ratio of change in fluorescence (DF, FCCP fluorescence minus experimental fluorescence) was used to the maximum change in fluorescence generated by succinate-driven Δψm (ΔFmax)."}, "C. elegans [3]": {"tested_on": "C. elegans", "test": "ETC inhibitor assays, survival of animals", "assay_type": "in vivo, Caenorhabditis elegans", "method": "Experiments were performed on at least three separate days, using 15-100 young adult animals per plate. Seeded plates were supplemented with rotenone (50 μM final concentration), antimycin A (50 μM final concentration), or oligomycin A (31 μM final concentration) 24 h before animals were transferred onto them. For azide toxicity, animals were placed in M9 buffer with 250 mM azide. Control plates were kept in the dark, and experimental plates were exposed to 1 Hz light (Quantum LED, 0.02 mW/mm^2) for the duration of the experiment. For all toxins, animals that were moving or those that moved in response to a light touch to the head were scored as alive. For rotenone, surviving animals were scored after 5 h. For antimycin A, animals were scored 16 h after exposure. For azide, animals were exposed for 1 h in M9 and allowed to recover for 1 h on a seeded culture plate and then survival was scored. Azide experimental plates were exposed to light (XCite LED, 0.19 mW/mm^2) for the duration of azide treatment and recovery. […]. For oligomycin A, animals were scored 18 h after exposure.\nas §1"}}, "data": [{"molecule": "B1", "values": [{"measurement": "AMPK phosphorylation", "setting": "AMPK", "value": "prevented this phosphorylation"}, {"measurement": "protection conferred by hypoxic preconditioning", "setting": "C. elegans [1]", "value": "suppressed"}, {"measurement": "polarization of Δψm (TMRE)", "setting": "[2]", "value": "polarize the Δψm as much as ETC-driven respiration"}, {"measurement": "survival", "setting": "C. elegans [3]; 31 μM oligomycin A, scored 18 hours later", "value": "No significant differences"}, {"measurement": "survival", "setting": "C. elegans [3]; 50 μM rotenone for 5 hours, +ATR +light", "value": "greater than the ATR alone effect"}, {"measurement": "survival", "setting": "C. elegans [3]; azide toxin assay, progeny of ATR-supplemented parents, +ATR +light", "value": 66.8, "unit": "%"}, {"measurement": "survival of animals exposed to ETC toxins", "setting": "C. elegans [3]; mtON active vs controls", "value": "survived more"}]}]}
